Source: publication PMC12557367, ““Precision on Two Wheels”–Structural Refinement of ^64Cu- and ^68Ga-Labeled Bicyclic Peptides Targeting Nectin‑4 for Improved Tumor Imaging: From Preclinical Development to First-in-Human Application” (Journal of Medicinal Chemistry, 2025)
Numbered stars: 1 amine (or outer) side, 2 acyl side, 3 side chain; on linkers, the order of the positions; unused ones are H or OH. Bridge positions count the residues as written; N and C are the ends. Square brackets hold non-standard residues; d marks the D form. * marks the point of attachment. (R)‑NODAGA = O=C(O)CN1CCN(CC(=O)O)CCN([C@H](CCC(=O)*)C(=O)O)CC1; 6FAM = O=C1OC2(c3ccc(O)cc3Oc3cc(O)ccc32)c2cc(C(=O)*)ccc21; DOTA = O=C(O)CN1CCN(CC(=O)O)CCN(CC(=O)*)CCN(CC(=O)O)CC1; TATA = O=C(CC[*:1])N1CN(C(=O)CC[*:2])CN(C(=O)CC[*:3])C1; Ser(et) = O-ethylserine, CCOC[C@H](N[*:1])C(=O)[*:2]; Mox = methoxinine, COCC[C@H](N[*:1])C(=O)[*:2]; 1Nal = N[C@@H](Cc1cccc2ccccc12)C(=O)O; 2Nal = N[C@@H](Cc1ccc2ccccc2c1)C(=O)O; Hyp = O=C(O)[C@@H]1C[C@@H](O)CN1; hArg = N=C(N)NCCCC[C@H](N)C(=O)O; Met(O) = CS(=O)CC[C@H](N)C(=O)O; SeMet = C[Se]CC[C@H](N)C(=O)O; Nle = CCCC[C@H](N)C(=O)O

T1: nectin-4 on intact HT-1376 cells (human (endogenous in HT-1376), UniProt Q96NY8 32-510)
T1 construct: also called cellular nectin-4
T1 sequence (looked up): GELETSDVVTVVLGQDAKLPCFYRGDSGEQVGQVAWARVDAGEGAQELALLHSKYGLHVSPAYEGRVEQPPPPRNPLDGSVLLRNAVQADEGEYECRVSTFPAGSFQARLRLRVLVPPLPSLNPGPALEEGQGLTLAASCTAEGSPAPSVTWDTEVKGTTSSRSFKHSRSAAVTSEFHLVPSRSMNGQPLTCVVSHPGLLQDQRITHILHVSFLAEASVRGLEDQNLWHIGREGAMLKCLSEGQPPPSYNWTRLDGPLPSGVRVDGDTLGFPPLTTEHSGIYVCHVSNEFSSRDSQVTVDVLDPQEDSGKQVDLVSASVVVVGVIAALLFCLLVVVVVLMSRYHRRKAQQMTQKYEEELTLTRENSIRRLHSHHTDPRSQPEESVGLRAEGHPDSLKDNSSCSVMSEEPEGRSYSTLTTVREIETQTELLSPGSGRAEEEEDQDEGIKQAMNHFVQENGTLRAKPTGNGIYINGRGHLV

T2: recombinant human nectin-4 (human, UniProt Q96NY8 32-349)
T2 construct: nectin-4, human, recombinant; also called complete extracellular domain of nectin-4; source: bought: R&D Systems (Catalog number 2659-N4)
T2 sequence (looked up): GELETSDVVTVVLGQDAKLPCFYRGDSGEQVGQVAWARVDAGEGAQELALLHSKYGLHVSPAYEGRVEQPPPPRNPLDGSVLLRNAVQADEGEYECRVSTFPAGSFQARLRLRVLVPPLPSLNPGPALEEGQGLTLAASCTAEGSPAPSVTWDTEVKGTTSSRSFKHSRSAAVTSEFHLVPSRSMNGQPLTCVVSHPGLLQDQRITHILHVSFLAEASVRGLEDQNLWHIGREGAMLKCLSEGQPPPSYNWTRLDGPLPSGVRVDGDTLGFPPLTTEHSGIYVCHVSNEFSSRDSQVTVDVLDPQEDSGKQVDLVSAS

B1: 6 (peptide)
chain: {(R)‑NODAGA}-CP[1Nal][dD]C[Ser(et)][hArg]DWSTP[Hyp]WC-NH2
modifications: linker 1-5-15 via TATA
SMILES: CCOC[C@@H]1NC(=O)[C@@H]2CSCCC(=O)N3CN(CN(C3)C(=O)CCSC[C@H](NC(=O)CC[C@H](C(=O)O)N3CCN(CC(=O)O)CCN(CC(=O)O)CC3)C(=O)N3CCC[C@H]3C(=O)N[C@@H](Cc3cccc4ccccc34)C(=O)N[C@H](CC(=O)O)C(=O)N2)C(=O)CCSC[C@@H](C(N)=O)NC(=O)[C@H](Cc2c[nH]c3ccccc23)NC(=O)[C@@H]2C[C@@H](O)CN2C(=O)[C@@H]2CCCN2C(=O)[C@H]([C@@H](C)O)NC(=O)[C@H](CO)NC(=O)[C@H](Cc2c[nH]c3ccccc23)NC(=O)[C@H](CC(=O)O)NC(=O)[C@H](CCCCNC(=N)N)NC1=O

target: T1, nectin-4 on intact HT-1376 cells; experiment: radioligand binding; intact HT-1376 cells, 10 nM radioligand, 37 °C, 1 h, PBS wash; nonspecific binding with 1 µM 1d (3a for [68Ga]Ga-8d); specific binding in fmol/mg protein; details: one partner purified

| Binder | specific cell binding at 10 nM radioligand [fmol/mg] |
| --- | --- |
| {(R)‑NODAGA}-CP[1Nal][dD]CM[hArg]DWSTP[Hyp]WC-NH2 (linker 1-5-15 via TATA; also: NODAGA complexed with 68Ga) [[68Ga]Ga-1e] | 474 |
| {(R)‑NODAGA}-CP[1Nal][dD]CM[hArg]DWSTP[Hyp]WC-NH2 (linker 1-5-15 via TATA; also: NODAGA complexed with 64Cu) [[64Cu]Cu-1e] | 159 |
| {(R)‑NODAGA}-CP[2Nal][dD]CMRDWSTP[Hyp]WC-NH2 (linker 1-5-15 via TATA; also: NODAGA complexed with 64Cu) [[64Cu]Cu-8a] | 15.6 |
| {DOTA}-CP[2Nal][dD]CMRDWSTP[Hyp]WC-NH2 (linker 1-5-15 via TATA; also: DOTA complexed with 68Ga) [[68Ga]Ga-8c] | 38.4 |

target: T2, recombinant human nectin-4; experiment: SPR; Biacore T200, human nectin-4 immobilised on CM5 chip by amine coupling, peptides as analytes, single-cycle kinetics, 25 °C, HBS-P+ pH 7.4, no DMSO, 1:1 binding model; details: both partners purified

| Binder | Kd [nM] | koff [s⁻¹] | kon [M⁻¹ s⁻¹] |
| --- | --- | --- | --- |
| {(R)‑NODAGA}-CP[1Nal][dD]CM[hArg]DWSTP[Hyp]WC-NH2 (linker 1-5-15 via TATA; also: NODAGA complexed with natGa) [natGa-1e] | 2.39 | 0.0026 | 1.1e+06 |
| {DOTA}-CP[2Nal][dD]CMRDWSTP[Hyp]WC-OH (linker 1-5-15 via TATA) [8d (N188)] | 236 | 0.00881 | 40000 |
| {(R)‑NODAGA}-CP[1Nal][dD]CMRDWSTP[Hyp]WC-NH2 (linker 1-5-15 via TATA) [10] | 2.51 | 0.00278 | 1.11e+06 |
| {(R)‑NODAGA}-CP[1Nal][dD]C[Nle][hArg]DWSTP[Hyp]WC-NH2 (linker 1-5-15 via TATA) [3a] | 1.31 | – | – |
| {(R)‑NODAGA}-CP[2Nal][dD]CMRDWSTP[Hyp]WC-NH2 (linker 1-5-15 via TATA) [8a] | 63 | 0.0433 | 680000 |
| B1 | 6.29 | 0.0247 | 3.86e+06 |
| {(R)‑NODAGA}-CP[1Nal][dD]CM[hArg]DWSTP[Hyp]WC-NH2 (linker 1-5-15 via TATA) [1e] | 3.6 | 0.00434 | 1.21e+06 |
| {(R)‑NODAGA}-CP[2Nal][dD]CM[hArg]DWSTP[Hyp]WC-NH2 (linker 1-5-15 via TATA) [9] | 4.58 | 0.0765 | 1.69e+07 |
| {DOTA}-CP[2Nal][dD]CMRDWSTP[Hyp]WC-NH2 (linker 1-5-15 via TATA) [8c] | 127 | 0.00239 | 20000 |
| {DOTA}-CP[1Nal][dD]CM[hArg]DWSTP[Hyp]WC-NH2 (linker 1-5-15 via TATA) [1f] | 1.31 | 0.0115 | 8.76e+06 |

target: T1, nectin-4 on intact HT-1376 cells; experiment: radioligand binding; saturation binding on intact HT-1376 cells, 10 radioligand concentrations (0.156-80 or 0.321-160 nM), 37 °C, 1 h, PBS wash; nonspecific with 1 µM 1d; apparent (covers binding and putative internalisation); details: one partner purified

| Binder | Kd [nM] |
| --- | --- |
| {(R)‑NODAGA}-CP[1Nal][dD]CM[hArg]DWSTP[Hyp]WC-NH2 (linker 1-5-15 via TATA; also: NODAGA complexed with 68Ga) [[68Ga]Ga-1e] | 8.7 |
| {(R)‑NODAGA}-CP[1Nal][dD]CM[hArg]DWSTP[Hyp]WC-NH2 (linker 1-5-15 via TATA; also: NODAGA complexed with 64Cu) [[64Cu]Cu-1e] | 7.15 |
| {(R)‑NODAGA}-CP[2Nal][dD]CMRDWSTP[Hyp]WC-NH2 (linker 1-5-15 via TATA; also: NODAGA complexed with 64Cu) [[64Cu]Cu-8a] | 51.7 |
| {(R)‑NODAGA}-CP[1Nal][dD]C[Mox][hArg]DWSTP[Hyp]WC-NH2 (linker 1-5-15 via TATA; also: NODAGA complexed with 68Ga) [[68Ga]Ga-4] | 13.1 |
| {DOTA}-CP[2Nal][dD]CMRDWSTP[Hyp]WC-NH2 (linker 1-5-15 via TATA; also: DOTA complexed with 68Ga) [[68Ga]Ga-8c] | 103 |
| {DOTA}-CP[2Nal][dD]CMRDWSTP[Hyp]WC-OH (linker 1-5-15 via TATA; also: DOTA complexed with 68Ga) [[68Ga]Ga-8d ([68Ga]Ga-N188)] | 222 |

target: T2, recombinant human nectin-4; experiment: fluorescence polarisation; fluorescence anisotropy, direct binding: 1 nM fluorescent probe, 11 to 13 concentrations of nectin-4 (e.g. 0.06-250 nM), 37 °C, 1200 s, HEPES buffer 20 mM pH 7.4, 0.01% Tween20, NaCl, 1% DMSO; Morrison equation; details: both partners purified

| Binder | Kd [nM] |
| --- | --- |
| 6FAM-CP[2Nal][dD]CMRDWSTP[Hyp]WC-NH2 (linker 1-5-15 via TATA) [8b] | 1.38 ± 0.06 |
| 6FAM-CP[1Nal][dD]CM[hArg]DWSTP[Hyp]WC-NH2 (linker 1-5-15 via TATA) [1b] | 0.17 ± 0.01 |

target: T2, recombinant human nectin-4; experiment: fluorescence polarisation; fluorescence anisotropy, competition: 1 nM probe 1a, 20 nM nectin-4, 10 concentrations of nonlabeled peptide, 37 °C, HEPES buffer pH 7.4, 1% DMSO; IC50 transformed into Kd (Nikolovska-Coleska equation, Kd of 1a 0.94 nM); details: both partners purified

| Binder | Kd [nM] |
| --- | --- |
| {(R)‑NODAGA}-CP[1Nal][dD]CM[hArg]DWSTP[Hyp]WC-NH2 (linker 1-5-15 via TATA; also: NODAGA complexed with natGa) [natGa-1e] | 4.47 |
| {DOTA}-CP[2Nal][dD]CMRDWSTP[Hyp]WC-OH (linker 1-5-15 via TATA) [8d (N188)] | 191 |
| {(R)‑NODAGA}-CP[1Nal][dD]CMRDWSTP[Hyp]WC-NH2 (linker 1-5-15 via TATA) [10] | 0.61 |
| {(R)‑NODAGA}-CP[1Nal][dD]C[SeMet][hArg]DWSTP[Hyp]WC-NH2 (linker 1-5-15 via TATA) [5] | 1.37 |
| {(R)‑NODAGA}-CP[1Nal][dD]C[Nle][hArg]DWSTP[Hyp]WC-NH2 (linker 1-5-15 via TATA) [3a] | 1.04 |
| H-CP[1Nal][dD]CM[hArg]DWSTP[Hyp]WC-NH2 (linker 1-5-15 via TATA) [1c] | 1.51 |
| {(R)‑NODAGA}-CP[2Nal][dD]CMRDWSTP[Hyp]WC-NH2 (linker 1-5-15 via TATA) [8a] | 21 |
| Ac-CP[1Nal][dD]C[Nle][hArg]DWSTP[Hyp]WC-NH2 (linker 1-5-15 via TATA) [3b] | 0.58 |
| {(R)‑NODAGA}-CP[1Nal][dD]C[Nle][hArg]DWSTP[Hyp]WC-NH2 (linker 1-5-15 via TATA; also: NODAGA complexed with natCu) [natCu-3a] | 1.22 |
| B1 | 16.4 |
| {(R)‑NODAGA}-CP[1Nal][dD]CM[hArg]DWSTP[Hyp]WC-NH2 (linker 1-5-15 via TATA) [1e] | 0.77 |
| {(R)‑NODAGA}-CP[2Nal][dD]CM[hArg]DWSTP[Hyp]WC-NH2 (linker 1-5-15 via TATA) [9] | 11.5 |
| {(R)‑NODAGA}-CP[1Nal][dD]CM[hArg]DWSTP[Hyp]WC-NH2 (linker 1-5-15 via TATA; also: NODAGA complexed with natCu) [natCu-1e] | 0.23 |
| Ac-CP[1Nal][dD]CM[hArg]DWSTP[Hyp]WC-NH2 (linker 1-5-15 via TATA) [1d (BCY8126)] | 0.73 |
| {DOTA}-CP[2Nal][dD]CMRDWSTP[Hyp]WC-NH2 (linker 1-5-15 via TATA) [8c] | 149 |
| {DOTA}-CP[1Nal][dD]CM[hArg]DWSTP[Hyp]WC-NH2 (linker 1-5-15 via TATA) [1f] | 7.22 |
| {(R)‑NODAGA}-CP[1Nal][dD]C[Met(O)][hArg]DWSTP[Hyp]WC-NH2 (linker 1-5-15 via TATA; also: Met(O): mixture of diastereomers) [2] | 25 |
